Results from the DeepSol protein solubility set.

assay: soluble on expression in E. coli; label from the status in PepcDB or PDB records

Sequence | soluble on expression in E. coli
MGSDKIHHHHHHMKFLPLIAMCLFLTGCVGDRSDLELFVTTTKAQHVAHIPPLKEPPRFEHFAYQAELMRSPFVPPSRELTEEVVDTSKDCLQPDLKRRKGRLETYPLDNLKMRGTLSEADTTWALVETNDGSVYRMGTGEYLGLFNGRISKVTSQNVEVVELIPDGSGCWSERTSNLELSGE | not soluble
MAQHTYDEESVQELLGWAKKMLETKNYPTEKYQVNACTSIIDGKLYLESLISMISKNWENPTFHPTIEQLWEYREKWEGQKE | not soluble
MGSDKIHHHHHHMWTPMRDGPPKGMHGGKSERPISPRMKPSGLRIWTGSPRAANSERASDEALSCTHIQTCVARLRDTFPSGTVERGQHGGTTVNLIDGIKGNRFAVFGRAGMDMFADPIGTKSEDATTFRADLGGSSANICAGLVKLGAEAALVTSVSDDAVGRFCVNRLRDYGVETRYVRAVGGEARTSLAVYESRIDDFQNVIYRNGAADFQVTKADMDAVDYSAFSALITAGTVFAAEPSRSATFRAFEHARTAGLPVIFDIDYRPYSWPSPEVASEVLTRAGEASDLIVGNDEEFGFMAGHIDKGLEKARALAAQGRMVIYKMGEAGAITIAEGQEIRTGIYPVTAVKPNGAGDSFMAGLLASIAQGHALSDAVLRGSACASIVVSQPGCANAMPTTAELEAFLASHPGPTV | not soluble
MRQKTIREISVAWKEYKQPYVKQSTMAAYVLILENHILPNFGESDTLHEQAVQDFVLRKIENGLSVKSVKDILIVLKMVMKFGVKNEWMDYQEWDIKYPSSSTTKELEVLSVANHKKILNHIQNHFSFTGLGIYISLCTGLRIGEVCALKWSDINVSEGTITVNRTIERIYIIDGTKKHTELVINTPKTQNSCREIPMTKELLAMVKPLKKVVNEDFYVLTNDEYPTEPRTYRNYYGKLM | not soluble
GLLAFFMVIAVSVGGLTQIVPLFFQDVTNKPVEGMKPRTALEVEGRDIYIREGCVGCHSQMIRPFRAETERYGHYSVAGESVWDHPFLWGSKRTGPDLARVGGRYSDDWHRAHLYNPRNVVPESKMPSYPWLVENKLDGKDTAKKMEVLRTLGTPYTDADIAGARDAVKGKTEMDAIVAYLQGLGT | not soluble
MAHHHHHHMDHRRSGLVLSLRYRCDGPVGTVETRRLTHVGTRSRARSAELARVRRALLVLLLPQRMKGLGQRLGDIRPREREGPGCRAQPWRASVVPRPARASLPPPKASGCFYAVHHHDKSSRLSVTATTAHDSSMRAPPSSVLRWTFTCVSSPRSTTAAAQTYHRPLHHPSQGFTTPRGRGRSAIHTHTHTHTHTHTHTHTHTHTHTRLSFNVRGPCEEHPHAPAACCIPLFLCCDAPAVSAAAAMSLQVNLLNNTFANPFMNAAGVMCTTTEELVAMTESASGSLVSKSCTPALREGNPTPRYQALPLGSINSMGLPNNGFDFYLAYAAEQHDYGKKPLFLSMSGLSMRENVEMCKRLAAVATEKGVILELNLSCPNVPGKPQVAYDFDAMRQCLTAVSEVYPHSFGVKMPPYFDFAHFDAAAEILNEFPKVQFITCINSIGNGLVIDAETESVVIKPKQGFGGLGGRYVLPTALANINAFYRRCPGKLIFGCGGVYTGEDAFLHVLAGASMVQVGTALQEEGPSIFERLTSELLGVMAKKRYQTLDEFRGKVRTLDGTAESTR | not soluble
MKVNIDPTAPTFATYRRDMRAEQMAEDYPVVSIDSDALDAARMLAEHRLPGLLVTAGAGKQYAVLPASQVVRFIVPRYVQDDPLLAGVLNESTADRCAERLSGKKVRDVLPDHLVEVPPANADDTIIEVAAVMARLRSPLLAVVKDGSLLGVVTASRLLAAALKT | soluble
MLTLYTSPSCTSCRKARAWLQEHEIPFKERNIFSEPLNIEELKAILIMTEDGTEEIISTRSKVFQKLNMDLDELPLQDLLELVQENPGLLRRPIMIDEKRLQVGFNEDEIRRFLPRDVRQLELRQAQLMAGL | soluble
MGSDKIHHHHHHMATVLIVGRPNVGKSTLFNKLVKKKKAIVEDEEGVTRDPVQDTVEWYGKTFKLVDTCGVFDNPQDIISQKMKEVTLNMIREADLVLFVVDGKRGITKEDESLADFLRKSTVDTILVANKAENLREFEREVKPELYSLGFGEPIPVSAEHNINLDTLLETIIKKLEEKGLDLESKPEITDAIKVAIVGRPNVGKSTLFNAILNKERALVSPIPGTTRDPVDDEVFIDGRKYVFVDTAGLRRKSRVEPRTVEKYSNYRVVDSIEKADVVVIVLDATQGITRQDQRIAGLVERRGRASVVVFNKWDLVEHREKRYDEFTKLFREKLYFIDYSPLIFTSADKGWNIDRVIDAINLAYASYTTKVPSSAINSALQKVLAFTNLPRGLKIFFGLQVDIKPPTFLFFVNSIEKVKNPQKIFLRKLIRDYVFPFEGSPIFLKFKRSR | not soluble
MPNSKKSKKGGDQQHVTIVPVEPVKGENVDTVAYSSRSRISGESGHLIADVQSPHAKKHRIIFDRDHNVFEFRLLDGSAKHIIVYRLDELLSTTCYPFKIKNGVPIIPTKPTTSDKTLYFNFVYKKDKQKWRLKQIPVIFYTTSERDYWHSLIDTTLRRVKNRPKNIIIFINPFGGNGKAQKIFKDNVDAFFWLTPGLRYKVVLTERANHARDYIVEMPPEQWSAIDGLVSVGGDGLFNELLSGALLRTQTDAGRNIDNPSSHLVTPHIRFGIIGAGSANSIVSTVHETNDHATSAVHIAIGSECNVDVCTVHQHQKLIRISANAISYGWLGDVLRDSEEYRCLGPIRYQWSALRTTIRHPIYRGMVQFSLSHKENVNPKDQLPPCLEPCPVCMKPQGNDKYDYHWHAEFTHVICCVIPTVTPFTPYGLAPFTGIGDGTLDLALVPRISRFHNMQFMRKVAMYGGKQLYELDPSLNCYRVTKWSYQPDADQEDPGVWNLDGEILEQPKDEPLHFKLHPQLISFFGRDAAMVKPTKRSFIKKRKSSIVYQ | not soluble
MATVSDDYAQIDISTEEKDKLVAEVMRHVLFKTHQTAGCPIKREELTQIVTKNYRQRVLPALVIKEAGDRLAATFGYEMRELQRTRAPSTRSGRPSQQQVNVDAKSYVLVSKLDPEVYSKYVEHKEAAHVSGFAFVVISIVHLSGGKISEEDLWHQLRRLGLNESDENHPVLGNNKQALELLVQQRYLLKEKLSGPEGHSMMYELAERALDESISGKLKDYISQVVSTSTAAEVD | soluble
MKARKRKEQTFHEYFKEWVDLYKVGAIRSITLQKYYVTEQKIQELVPDLKIKDLDRYTYQQLLNSYAVTHEKQTTMDFHHHLKGAILDAVDEGVISQNPTRKIVIKGKTPRPKKAKFLNQFEVQALLKELNLKEDINWDWFILLIIKTGLRFSEALALTPSDFDFSKQKIIINKTWDYKMVTGSFQPTKNESSNRKIQIDWQLAMQFSQLIKMKDPDKPIFVKSRVFNSTINNRLKVLCENANIPTITVHSLRHTHASLLLFAGVSIASVANRLGHSSMTTTQETYLHIIQELENQDNDKIIRHLSMLM | not soluble
MPTVLRWTRTMCKRPTCRVRQAWLVLPITGRWPSGGVSMKHACMLDSALPKPSQHSLRRQLNAIKREQFPWMSEVTKNAPQMAIIQLGRAFQNFFAGRAKYPKFRKKGMHDRFTLTNDQFDLEASRIRIPRLGWVRMRETLRFAGKIMLATVSRVAGRWFVSITVDVPDPSHLPQAENQGTVGVDLGVLVLATLSTGETVCGPRPHRALLGRVCRLSRSVLRKVKGSANRHKAKATLANLHARIAAIRLDALHTLTSDLTRRFHTIGIENLNVKGMLRNRHLARSIADIGFFEFRRQLEYKAMMRGGQVVVANRFFASSKRCLTCGHTLNELPLSVRQWACPACGARHDRDVNAAVNLKNMAVSSTVSACGEEGAGPRRKTAVGEAGSQLLEHHHHHH | not soluble
MAHHHHHHMSAVLMAAVKVWTGNVRACLRVHHDTRTFCKAMKMRNLPVVLLDGVRFASLESVQHGKVRTRKDVVSGDLCVAIRKLNGVELMDDVQPRDPAIFLRDEKSKTFSAEEAREIYSIIVKSLSHILVVDSEVKTVECGIKRIMGNSTATEPETPKLTDLIRWLKSNMSTHDVLPIFSTQDRTVTFFVNQKIFRRIGHSDNGRRKK | not soluble
MRILSLILWIAAIVLPVHSASAAPVKMTIVLERQYLDGEMSEEKVTETVDSMTEIWKKYRGWQLVTLDDQTIVFRKTINDISPLLKTNGYFGITDDGTLSIFNGKPDRSSEIIQSFFQIDVQKLESRQQEKLKKGIRVLSKERYEQVIEMYRHFAVVQ | not soluble
MSLENIMTLPKIKQVRAWFTGGATAEKGAGGGDYHDQGANHWIDDHIATPMSKYRDYEQLRQSFGINVLGTLVVEVEAENGQTGFAVSTAGEMGCFIVEKHLNRFIEGKCVSDIKLIHDQMLNATLYYSGSGGLVMNTISCVDLALWDLFGKVVGLPVYKLLGGAVRDEIQFYATGARPDLAKEMGFIGGKMPTHWGPHDGDAGIRKDAAMVADMREKCGEDFWLMLDCWMSQDVNYATKLAHACAPYNLKWIEECLPPQQYEGYRELKRNAPVGMMVTSGEHHGTLQSFRTLSETGIDIMQPDVGWCGGLTTLVEIAAIAKSRGQLVVPHGSSVYSHHAVITFTNTPFSEFLMTSPDCSTMRPQFDPILLNEPVPVNGRIHKSVLDKPGFGVELNRDCNLKRPYSHEGHHHHHH | soluble
GPGSMPSKEASSRNLPISGRDTNGKTYRSTDEMWKAELTGDLYDPEKGWYGKALEYWRTVPATVSGVLGGMDHVHDVDIEGSRNFIASLPGHGTSRALDCGAGIGRITKNLLTKLYATTDLLEPVKHMLEEAKRELAGMPVGKFILASMETATLPPNTYDLIVIQWTAIYLTDADFVKFFKHCQQALTPNGYIFFKENCSTGDRFLVDKEDSSLTRSDIHYKRLFNESGVRVVKEAFQEEWPTDLFPLKMYALK | soluble
MAHHHHHHMKRLIQSLQHFSVTSSEHVELFSKITLRDFGFYVSDADAMRYVADEAYSIAERAFQLENALHQHRLSASTAQVSPMAWKSSSNDTVGCSTLYQDEAVTLCWFVLPPGKVLPLHDHPGMTVWQRAMHGRLHLCSITREAVSQTSTGASTAPINGTVVFDGELDGVGDAIPASDVLGFTPTDGDGGGMLHEIRNIDATQPALFVDIISPPYNQASSSMVCGYYTAEPLNATATLLPALAADCGVRHQLKAGDKVRLRPRTNYSGPAMNAFLHVV | not soluble
MSEVEKTYCGFIAIVGRPNVGKSTLLNELLGQKISITSRKPQTTRHRIMGIHTEGPYQAIYVDTPGLHIEEKRAINRLMNRAASSSLGDVELVIFVVEGTHWTADDEMVVNKLRSLQCPVLLAINKVDNVTDKTKLLPHMQFLSQQMNFLDVVPISAEKGMNVDTIASIVRKHMPEAEHHFPEDYITDRSQRFMASEIIREKLMRFLGEELPYSVTVEIEQFVPNERGGYNIHGLILVEREGQKKMVIGNKGSKIKVIGTEARQDMERMFEAKVHLELWVKVKSGWADDERALRSLGYTDDLK | not soluble
MSLAKIVFCILDGLGDTTHTLPDGRKGTCLEMAKRPTLDAIAKAGTVGLNDSVSPGYPCGSDTAHLSLFGYPPFTYYNGRGAFEALGGGMDMEPGSIAFKSNFSTMYGECVKYRRCDRHFEVEGPILCKDLDGIKIPEFPEVKVSVVYATEHRCAVKILAPGLSDKIAGTDPIHDDLDLIKSYPLDDSPEAAYTAKVVNALSDTFRKALENHPINIERRKQGKEVANVILLRGPGMRLSCQPFGERHNIKAFLIAPTAIIAGLGISVGLPVIKVKGATGDMDSNFNAKAIAAAQELDGDKYDMGIIHMKGIDDAAHDGKIAVKTELIERADKAIHLLIEKLAELEEKNGDRFIVAVTADHSTSCTWKDHCFEPVPFIVAEVAKVAQELGIKHVDQSKKPELVPTDSVHEFTETAACKGSLGRFCGAQMMNLLFHFAGRKQEEGHHHHHH | soluble
